The record followed here is article PMC4895335.

The target of the data set is T1, Ms4022 (TetR family regulator) (Mycobacterium smegmatis mc2 155) (UniProt A0QZH0).
T1 sequence: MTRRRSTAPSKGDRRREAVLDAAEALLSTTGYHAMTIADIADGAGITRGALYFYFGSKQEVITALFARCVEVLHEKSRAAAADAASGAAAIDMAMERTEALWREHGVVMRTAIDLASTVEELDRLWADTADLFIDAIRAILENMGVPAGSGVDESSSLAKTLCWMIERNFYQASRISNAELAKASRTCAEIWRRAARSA
The data set can be described thus: EMSA. Particulars: EMSA: 50 mM Tris-HCl pH 7.5, 10 mM MgCl2, 50 mM NaCl, 4 C 30 min, 5% native PAGE in 0.5x TBE at room temperature; footprinting: binding as in EMSA, DNase I at …. Background: Mobility shift assays separate free from complexed probe on a gel.

Consider “GTCGATCTCCGTCGGGTCAACGGGCGAACTTCCCTGTCACGGCAGTCAGGTTAGCACGAATCCACACAGTGCTGATTTTTATCAGCTTGTTGTCGGCGACGCGGTCACCCGTTTCGGTCGCGAGGTGTCTGATCGGTCGCCATCGGTTATGGCCTTACGGCACAACGACTTCGGGCTGGCGGCCCGGCGTCGTCGCATCGCGCACGTCCGGTCGGACGCCCCCAGTCGGCCCCTCCGGACTAGGCGTCCACGCCGATACTTGACGGAGT (double strand) [Ms4022p s3]”, for which the binding result is on record as “binds”.

With “ACGCCGATACTTGACGGAGTGCTTATTTTTTTCGACACTGTGCTTATTGAGATGGCGGGGCATGGAGGCAGCGATGCGAACAATCTTGATCGCCGGAACGAGCGGCGACTTCCGGCGAGCATTCGCCGAGGCGGTTGCGCCTTGGCGTGCACACAGTCGCATCCCCGACCTCGCCGACGCCGCTGTCGGCCCATCCGGGAAGGACCATCCGTGACGAAATCCA (double strand) [Ms4022p s1]”, the binding entry is on record as “binds”.

Take “GCCTTACGGCACAACGACTTCGGGCTGGCGGCCCGGCGTCGTCGCATCGCGCACGTCCGGTCGGACGCCCCCAGTCGGCCCCTCCGGACTAGGCGTCCACGCCGATACTTGACGGAGTGCTTATTTTTTTCGACACTGTGCTTATTGAGATGGCGGGGCATGGAGGCAGCGATGCGAACAATCTTGATCGCCGGAACGAGCGGCGACTTCCGGCGAGCATTCGCCGAGGCGGTT (double strand) [Ms4022p s2]”: the binding result is listed as “binds”.
